In PMC5591277:

What was measured:
[1] = target: T1, Lhp1 (yeast La protein) (Saccharomyces cerevisiae) (UniProt P33399); test: EMSA; settings: Bmax 75%, 2',3'-cis-diol end, EMSA: 5 nM Cy3-U6, 100 mM KCl, 20% sucrose, 20 mM bis-tris/10 mM HCl, 1 mM EDTA, 1 mM TCEP, 0.01% Triton X-100, 0.1 mg/mL tRNA, 0.01 mg/mL heparin
T1 sequence: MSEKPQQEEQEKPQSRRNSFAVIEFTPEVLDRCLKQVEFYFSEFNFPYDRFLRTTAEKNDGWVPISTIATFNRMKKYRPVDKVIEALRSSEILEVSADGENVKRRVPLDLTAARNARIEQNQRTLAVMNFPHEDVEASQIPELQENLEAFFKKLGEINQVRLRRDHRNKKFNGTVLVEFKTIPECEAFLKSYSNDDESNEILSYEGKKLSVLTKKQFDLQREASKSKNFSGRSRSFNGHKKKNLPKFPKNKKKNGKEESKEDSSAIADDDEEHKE

[2] = target: T2, Lsm2-8 complex (Saccharomyces cerevisiae) (UniProt P38203+P57743+P40070+P40089+Q06406+P53905+P47093); test: EMSA; settings: Bmax 100%, EMSA: 5 nM Cy3-U6, 100 mM KCl, 20% sucrose, 20 mM bis-tris/10 mM HCl, 1 mM EDTA, 1 mM TCEP, 0.01% Triton X-100, 0.1 mg/mL tRNA, 0.01 mg/mL heparin
T2 sequence 1: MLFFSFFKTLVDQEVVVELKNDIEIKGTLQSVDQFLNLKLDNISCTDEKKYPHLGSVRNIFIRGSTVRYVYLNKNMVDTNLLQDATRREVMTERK
T2 sequence 2: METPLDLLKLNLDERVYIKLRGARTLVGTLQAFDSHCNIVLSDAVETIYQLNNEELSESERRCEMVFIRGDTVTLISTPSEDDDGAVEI
T2 sequence 3: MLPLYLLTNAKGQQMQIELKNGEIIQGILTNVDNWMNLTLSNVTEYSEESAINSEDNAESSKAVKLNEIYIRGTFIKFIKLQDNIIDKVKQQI
T2 sequence 4: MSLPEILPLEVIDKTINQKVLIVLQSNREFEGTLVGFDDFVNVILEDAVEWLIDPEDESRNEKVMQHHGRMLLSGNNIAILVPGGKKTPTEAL
T2 sequence 5: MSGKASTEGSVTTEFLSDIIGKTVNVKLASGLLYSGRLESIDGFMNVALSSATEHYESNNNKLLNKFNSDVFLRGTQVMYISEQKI
T2 sequence 6: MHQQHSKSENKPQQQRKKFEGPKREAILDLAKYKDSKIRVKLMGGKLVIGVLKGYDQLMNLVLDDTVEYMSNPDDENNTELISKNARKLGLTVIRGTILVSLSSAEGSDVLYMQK
T2 sequence 7: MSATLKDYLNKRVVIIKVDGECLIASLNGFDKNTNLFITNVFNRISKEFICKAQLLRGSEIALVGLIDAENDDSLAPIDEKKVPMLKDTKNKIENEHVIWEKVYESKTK

Row | Substance | Kd [1] | Kd ([2]; 2',3'-cis-diol end) | Kd ([2]; 2',3'-cyclic phosphate)
1 | U6 1-112 3'OH | 18 nM | 210 nM | 
2 | U6 1-112+1U 3'OH | 12 nM | 30 nM | 
3 | U6 1-112+1U>p |  |  | 70 nM
